Reference: paper PMC11328107
Values belong to the substance of their own block, whether it stands above or below them.

Columns and labels:
PCSK9 (Homo sapiens) = PCSK9 (Homo sapiens) (UniProt Q8NBP7); settings: cited from earlier work
[1] = target: proprotein convertase subtilisin/kexin type 9 (PCSK9) (UniProt Q8NBP7)
[2] = target: proprotein convertase subtilisin/kexin type 9 (PCSK9) (UniProt Q8NBP7); remark: listed apart in the source
[3] = target: His‐tagged PCSK9 of the CircuLex PCSK9‐LDLR in vitro binding assay kit (UniProt Q8NBP7); test: ELISA; CircuLex PCSK9-LDLR binding kit; LDLR-AB domain immobilised on the plate; His-tagged PCSK9 70 ng/mL alone or preincubated with HFn-Pep2-8 1–280 nM; 2 h; detected by biotinylated anti-His antibody
[4] = target: transferrin receptor 1 (CD71), His‐tagged (UniProt P02786); test: BLI; Octet N1; His-tagged CD71 immobilised on Ni-NTA tip; HFn-Pep2-8 2.5–1580 nM; PBS with 0.02% Tween 20, 0.1% BSA, 0.05% NaN3; KD from plateau values (steady state)
Sequence of transferrin receptor 1 (CD71), His‐tagged (P02786 whole entry): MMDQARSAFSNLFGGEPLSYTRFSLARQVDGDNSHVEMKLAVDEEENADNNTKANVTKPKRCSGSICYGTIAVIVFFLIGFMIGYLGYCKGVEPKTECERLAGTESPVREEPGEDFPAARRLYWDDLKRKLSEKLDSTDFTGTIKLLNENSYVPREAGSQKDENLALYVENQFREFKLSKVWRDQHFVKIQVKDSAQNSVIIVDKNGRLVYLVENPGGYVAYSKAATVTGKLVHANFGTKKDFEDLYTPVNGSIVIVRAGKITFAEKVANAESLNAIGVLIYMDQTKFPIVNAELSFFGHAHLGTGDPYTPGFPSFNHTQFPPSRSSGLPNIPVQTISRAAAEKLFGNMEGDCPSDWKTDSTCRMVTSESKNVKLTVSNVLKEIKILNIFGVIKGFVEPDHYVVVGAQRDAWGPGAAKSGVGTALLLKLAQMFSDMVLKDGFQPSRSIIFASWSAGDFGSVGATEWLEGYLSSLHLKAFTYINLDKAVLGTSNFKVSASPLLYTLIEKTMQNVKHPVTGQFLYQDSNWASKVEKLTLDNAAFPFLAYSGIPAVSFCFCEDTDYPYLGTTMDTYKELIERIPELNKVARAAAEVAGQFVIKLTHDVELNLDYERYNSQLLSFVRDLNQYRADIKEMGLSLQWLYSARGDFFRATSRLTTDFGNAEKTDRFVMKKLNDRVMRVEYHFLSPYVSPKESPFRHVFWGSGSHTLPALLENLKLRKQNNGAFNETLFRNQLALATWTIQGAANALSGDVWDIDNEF

Sequence of proprotein convertase subtilisin/kexin type 9 (PCSK9) (Q8NBP7 153-692): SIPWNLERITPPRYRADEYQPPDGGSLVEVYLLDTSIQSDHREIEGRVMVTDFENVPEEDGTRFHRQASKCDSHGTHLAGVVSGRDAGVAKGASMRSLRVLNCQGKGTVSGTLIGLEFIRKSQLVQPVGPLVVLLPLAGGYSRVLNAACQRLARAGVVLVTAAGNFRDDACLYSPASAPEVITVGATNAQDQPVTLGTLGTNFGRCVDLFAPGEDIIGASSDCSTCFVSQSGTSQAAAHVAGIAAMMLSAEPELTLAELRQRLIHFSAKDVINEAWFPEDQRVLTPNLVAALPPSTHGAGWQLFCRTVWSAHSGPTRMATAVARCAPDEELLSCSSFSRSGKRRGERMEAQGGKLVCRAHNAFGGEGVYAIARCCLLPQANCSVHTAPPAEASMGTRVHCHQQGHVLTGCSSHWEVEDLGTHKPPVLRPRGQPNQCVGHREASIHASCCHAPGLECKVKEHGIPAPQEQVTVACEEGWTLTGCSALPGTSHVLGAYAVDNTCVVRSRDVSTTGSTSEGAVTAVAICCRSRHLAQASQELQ
Sequence of PCSK9 (Homo sapiens) (Q8NBP7 153-692): as above
Sequence of His‐tagged PCSK9 of the CircuLex PCSK9‐LDLR in vitro binding assay kit (Q8NBP7 153-692): as above

Substance: Alirocumab
Kd (PCSK9 (Homo sapiens)): 0.52 nM

LDLR at the plasma membrane of HepG2 cells (immunofluorescence, MFI) after 8 h with 7 μg/mL PCSK9 plus 0.1 or 1 μM HFn-Pep2-8; blocks PCSK9 binding to LDLR [1]: 90%
Dil-LDL uptake by HepG2 cells (MFI) with 7 μg/mL PCSK9 plus 0.1 μM (81.12%) or 1 μM HFn-Pep2-8; blocks PCSK9 binding to LDLR [2]: 117%
IC50 [3]: 80.3 nM
Substance: HFn‐Pep2‐8 (human H ferritin with Pep2‐8 and a four‐glycine linker fused to the N‐terminus of each subunit) (designed binder)

Kd [4]: 27 nM
Substance: HFn‐Pep2‐8 (human H ferritin with Pep2‐8 and a four‐glycine linker fused to the N‐terminus of each subunit) (designed binder; other documents disagree on this pair)
